Consider one substance from doi:10.1101/590646.

In this experiment the target is SERINC5-VN-HA (human) (UniProt Q86VE9). In words: split reporter.
Chain of UniProt Q86VE9 (Q86VE9 whole entry): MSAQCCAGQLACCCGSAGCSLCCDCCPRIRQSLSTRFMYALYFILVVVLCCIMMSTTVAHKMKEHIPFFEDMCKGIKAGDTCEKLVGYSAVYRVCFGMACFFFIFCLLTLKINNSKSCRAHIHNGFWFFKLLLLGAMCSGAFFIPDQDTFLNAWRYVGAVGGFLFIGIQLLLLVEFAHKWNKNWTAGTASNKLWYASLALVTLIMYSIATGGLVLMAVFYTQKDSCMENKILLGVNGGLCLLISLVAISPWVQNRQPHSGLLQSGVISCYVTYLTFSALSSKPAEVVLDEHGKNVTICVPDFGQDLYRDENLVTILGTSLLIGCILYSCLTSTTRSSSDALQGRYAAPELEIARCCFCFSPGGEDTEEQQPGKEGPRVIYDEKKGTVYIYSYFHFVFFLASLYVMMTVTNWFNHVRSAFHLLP

For the substance “Nef_(NL43)-V5-VC (HIV-1 NL4-3 Nef fused to a Venus fragment) (natural protein)”, the fold increase in BiFC fluorescence over the singly expressed constructs worked out at 4 fold.
